According to paper PMC5350519:

Tests used:
[1] = target: CENP-A^TAP (carboxy-terminally TAP-tagged CENP-A) (human) (UniProt P49450); experiment: co-IP
[2] = target: CENP-A^LAP (CENP-A tagged at an endogenous allele with a LAP tag) (human (endogenous in HeLa)) (UniProt P49450); experiment: co-IP

fold depletion of histone H3 in the purified complexes against the input [1] [fold] | percent of the total CENP-A in the affinity-purified complexes [1] [%] | stoichiometry N (CENP-A molecules in a complex) [1] | stoichiometry N (CENP-A molecules in a complex) [2] | Substance
6250 |  |  |  | histone H3 (from UniProt P68431 1-136) (natural protein)
 | 9 to 13 | > 2 | 2 | untagged endogenous CENP-A (from UniProt P49450 1-140) (natural protein)
